According to PMC6128974:

T1: DOF3.4-ZF (Arabidopsis thaliana, UniProt Q39088 22-81)
T1 sequence: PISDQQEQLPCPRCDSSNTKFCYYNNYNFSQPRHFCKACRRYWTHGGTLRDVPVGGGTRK

T2: DOF5.8-ZF (Arabidopsis thaliana, UniProt Q9FGD6 24-83)
T2 sequence: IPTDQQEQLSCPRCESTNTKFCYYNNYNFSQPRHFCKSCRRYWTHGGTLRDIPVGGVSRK

B1: Double-motif probe, fluorescein (dsDNA)
DNA 1: AAATAATCATAAAGTATTAAAGTAATATATAC
DNA 2: GTATATATTACTTTAATACTTTATGATTATTT
B2: Control for double-motif probe (dsDNA)
DNA 1: AAATAATCATGCGATATTGCGAAATATATAAC
DNA 2: GTTATATATTTCGCAATATCGCATGATTATTT
B3: Control for single-motif probe (dsDNA)
DNA 1: AATCCAGCGATGTAGAGGAG
DNA 2: CTCCTCTACATCGCTGGATT

Legend:
DOF3.4-ZF [1] = biological target: T1, DOF3.4-ZF; assay: MST
DOF5.8-ZF [2] = biological target: T2, DOF5.8-ZF; assay: MST
DOF3.4-ZF [3] = biological target: T1, DOF3.4-ZF; assay: EMSA
DOF5.8-ZF [4] = biological target: T2, DOF5.8-ZF; assay: EMSA

| Binder | Kd (DOF3.4-ZF [1]) [nM] | Kd (DOF5.8-ZF [2]) [nM] | binding result (DOF3.4-ZF [3]) | binding result (DOF5.8-ZF [4]) |
| --- | --- | --- | --- | --- |
| B1 | 2300 ± 1000 | 2500 ± 1000 |  |  |
| B2 |  |  | no binding | no binding |
| B3 |  |  | no binding | no binding |
